From US20230295559A1 (PIVOT BIO, published 2023)

Target: T1, glutamine synthetase GlnA (Paenibacillus polymyxa CI41)
T1 chain: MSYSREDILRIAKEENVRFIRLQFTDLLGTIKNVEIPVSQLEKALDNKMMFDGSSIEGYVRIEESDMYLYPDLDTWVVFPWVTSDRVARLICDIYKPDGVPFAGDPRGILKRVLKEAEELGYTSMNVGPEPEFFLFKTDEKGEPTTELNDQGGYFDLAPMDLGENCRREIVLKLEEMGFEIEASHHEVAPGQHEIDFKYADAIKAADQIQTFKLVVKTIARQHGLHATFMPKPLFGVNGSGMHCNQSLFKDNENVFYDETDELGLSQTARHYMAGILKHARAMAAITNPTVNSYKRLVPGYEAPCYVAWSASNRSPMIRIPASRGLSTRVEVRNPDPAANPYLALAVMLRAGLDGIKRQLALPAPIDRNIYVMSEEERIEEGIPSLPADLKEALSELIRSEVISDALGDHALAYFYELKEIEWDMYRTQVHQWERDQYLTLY
Assay: cell-based or functional assay

overall nitrogenase activity (acetylene reduction assay): 5 fold
B1: GlnR with C-terminal deletion (Δ113-137) (other)
chain: MGDEIRRNMALFPIGIVMKLTDLSARQIRYYEQHNLIVPARTSGNQRLFSFNDVERLLEIKALIEKGVNIAGIKQVMNPVTKESEEATVITADTEVKRREMSDTQLHRLLKQ
